US20210017569A1, “Ligase Screening Assay” (UNIVERSITY OF DUNDEE, priority 2018, published 2021)

Molecular target: T1, GST-MYCBP2cat (Homo sapiens, UniProt O75592)
T1 construct: GST-tagged MYCBP2cat (Ser4378-Phe4640), wt and mutants, were expressed at 16° C. overnight; made in house; host or cells: E. coli BL21-DE3
T1 sequence (O75592 4416-4678 limits assumed): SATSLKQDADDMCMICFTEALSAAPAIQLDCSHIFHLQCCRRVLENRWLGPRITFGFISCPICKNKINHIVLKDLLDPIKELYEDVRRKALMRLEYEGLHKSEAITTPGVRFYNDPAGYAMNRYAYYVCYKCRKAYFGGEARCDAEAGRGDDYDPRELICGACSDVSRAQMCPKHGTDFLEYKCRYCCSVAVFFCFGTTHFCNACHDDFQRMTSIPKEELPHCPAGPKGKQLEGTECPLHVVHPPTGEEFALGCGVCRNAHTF
Test: Multiple turnover E2 discharge panel (threonine discharge)
Assay type: biochemical
Settings: 17 E2s tested
Experimental: E2s were screened for threonine discharge activity with GST-MYCBP2cat as described for the amino acid panel. E2s were also incubated in the presence of threonine but in the absence of GST-MYCBP2cat. These samples provided a reference to distinguish between intrinsic E2˜Ub instability and E3-dependent discharge.

E2 partner activity with MYCBP2cat: robust activity
B1: UBE2E1: E2 conjugating enzyme (protein, UniProt P51965 2-193, looked up)
Ubiquitin-conjugating enzyme …: SDDDSRASTSSSSSSSSNQQTEKETNTPKKKESKVSMSKNSKLLSTSAKRIQKELADITLDPPPNCSAGPKGDNIYEWRSTILGPPGSVYEGGVFFLDITFTPEYPFKPPKVTFRTRIYHCNINSQGVICLDILKDNWSPALTISKVLLSICSLLTDCNPADPLVGSIATQYMTNRAEHDRMARQWTKRYAT
